Laboratory results published in paper PMC10464304, “Refined read‐out: The hUHRF1 Tandem‐Tudor domain prefers binding to histone H3 tails containing K4me1 in the context of H3K9me2/3” (Protein Science : A Publication of the Protein Society, 2023).
Numbering of substitutions follows the chain as printed. Blank lines part the entries; values can stand above or below the binder they belong to. No end group written: not given here. Me3 = trimethyl (trimethyl-lysine)

Legend:
Assay in all cases: fluorescence polarisation; fluorescence anisotropy titration; 100 nM FITC-labeled peptide in the cuvette, protein added stepwise; 23°C; 100 mM KCl, 20 mM HEPES pH 7.5, 10% v/v glycerol
Settings in all cases: both partners purified
[1] = molecular target: T1, GST-fused Tandem-Tudor domain (TTD) of human UHRF1, residues 126-280, wild type (human, UniProt Q96T88 126-280)
T1 construct: Tandem Tudor domain (TTD) of human UHRF1, UniProt Q96T88, residues 126-280; borders as in Rothbart et al., 2012; also called hUHRF1-TTD; UHRF1-TTD; source: E. coli, purified (Glutathione Agarose 4B); not shown: GST, N-terminal, kept
T1 sequence (looked up): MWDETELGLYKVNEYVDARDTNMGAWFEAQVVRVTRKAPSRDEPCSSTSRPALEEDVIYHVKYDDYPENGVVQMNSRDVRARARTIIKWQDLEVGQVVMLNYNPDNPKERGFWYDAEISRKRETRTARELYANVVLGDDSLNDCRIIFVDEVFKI

[2] = molecular target: T2, GST-hUHRF1-TTD (126-280) R207Q (human, UniProt Q96T88 126-280, R207Q)
T2 construct: Tandem Tudor domain (TTD) of human UHRF1, UniProt Q96T88, residues 126-280; source: E. coli, purified (Glutathione Agarose 4B); not shown: GST, N-terminal, kept
T2 sequence (looked up): T1 sequence (looked up) with R82Q

[3] = molecular target: T3, GST-hUHRF1-TTD (126-280) R207H (human, UniProt Q96T88 126-280, R207H)
T3 construct: Tandem Tudor domain (TTD) of human UHRF1, UniProt Q96T88, residues 126-280; source: E. coli, purified (Glutathione Agarose 4B); not shown: GST, N-terminal, kept
T3 sequence (looked up): T1 sequence (looked up) with R82H

[4] = molecular target: T4, GST-hUHRF1-TTD (126-280) R207E (human, UniProt Q96T88 126-280, R207E)
T4 construct: Tandem Tudor domain (TTD) of human UHRF1, UniProt Q96T88, residues 126-280; also called TTD R207E; source: E. coli, purified (Glutathione Agarose 4B); not shown: GST, N-terminal, kept
T4 sequence (looked up): T1 sequence (looked up) with R82E

[5] = molecular target: T5, GST-hUHRF1-TTD (126-280) M224A (human, UniProt Q96T88 126-280, M224A)
T5 construct: Tandem Tudor domain (TTD) of human UHRF1, UniProt Q96T88, residues 126-280; source: E. coli, purified (Glutathione Agarose 4B); not shown: GST, N-terminal, kept
T5 sequence (looked up): T1 sequence (looked up) with M99A

[6] = molecular target: T6, GST-hUHRF1-TTD (126-280) F278A (human, UniProt Q96T88 126-280, F278A)
T6 construct: Tandem Tudor domain (TTD) of human UHRF1, UniProt Q96T88, residues 126-280; source: E. coli, purified (Glutathione Agarose 4B); not shown: GST, N-terminal, kept
T6 sequence (looked up): T1 sequence (looked up) with F153A

[7] = molecular target: T7, GST-hUHRF1-TTD (126-280) D142A (human, UniProt Q96T88 126-280, D142A)
T7 construct: Tandem Tudor domain (TTD) of human UHRF1, UniProt Q96T88, residues 126-280; also called TTD D142A mutant; source: E. coli, purified (Glutathione Agarose 4B); not shown: GST, N-terminal, kept
T7 sequence (looked up): T1 sequence (looked up) with D17A

[8] = molecular target: T8, GST-hUHRF1-TTD (126-280) D142E (human, UniProt Q96T88 126-280, D142E)
T8 construct: Tandem Tudor domain (TTD) of human UHRF1, UniProt Q96T88, residues 126-280; source: E. coli, purified (Glutathione Agarose 4B); not shown: GST, N-terminal, kept
T8 sequence (looked up): T1 sequence (looked up) with D17E

[9] = molecular target: T9, GST-hUHRF1-TTD (126-280) D142N (human, UniProt Q96T88 126-280, D142N)
T9 construct: Tandem Tudor domain (TTD) of human UHRF1, UniProt Q96T88, residues 126-280; source: E. coli, purified (Glutathione Agarose 4B); not shown: GST, N-terminal, kept
T9 sequence (looked up): T1 sequence (looked up) with D17N

[10] = molecular target: T10, GST-hUHRF1-TTD (126-280) E153A (human, UniProt Q96T88 126-280, E153A)
T10 construct: Tandem Tudor domain (TTD) of human UHRF1, UniProt Q96T88, residues 126-280; also called E153A TTD mutant; source: E. coli, purified (Glutathione Agarose 4B); not shown: GST, N-terminal, kept
T10 sequence (looked up): T1 sequence (looked up) with E28A

[11] = molecular target: T11, GST-hUHRF1-TTD (126-280) E153D (human, UniProt Q96T88 126-280, E153D)
T11 construct: Tandem Tudor domain (TTD) of human UHRF1, UniProt Q96T88, residues 126-280; also called TTD E153D; source: E. coli, purified (Glutathione Agarose 4B); not shown: GST, N-terminal, kept
T11 sequence (looked up): T1 sequence (looked up) with E28D

[12] = molecular target: T12, GST-hUHRF1-TTD (126-280) E153Q (human, UniProt Q96T88 126-280, E153Q)
T12 construct: Tandem Tudor domain (TTD) of human UHRF1, UniProt Q96T88, residues 126-280; source: E. coli, purified (Glutathione Agarose 4B); not shown: GST, N-terminal, kept
T12 sequence (looked up): T1 sequence (looked up) with E28Q

[13] = molecular target: T13, GST-hUHRF1-TTD (126-280) R207A (human, UniProt Q96T88 126-280, R207A)
T13 construct: Tandem Tudor domain (TTD) of human UHRF1, UniProt Q96T88, residues 126-280; source: E. coli, purified (Glutathione Agarose 4B); not shown: GST, N-terminal, kept
T13 sequence (looked up): T1 sequence (looked up) with R82A

[14] = molecular target: T14, GST-hUHRF1-TTD (126-280) R207L (human, UniProt Q96T88 126-280, R207L)
T14 construct: Tandem Tudor domain (TTD) of human UHRF1, UniProt Q96T88, residues 126-280; source: E. coli, purified (Glutathione Agarose 4B); not shown: GST, N-terminal, kept
T14 sequence (looked up): T1 sequence (looked up) with R82L

Kd [1]: 240 nM
Kd [2]: 390 nM
Kd [3]: 460 nM
Kd [4]: 270 nM
Kd [5]: 430 nM
Kd [6]: 3900 nM
Kd [7]: 2700 nM
Kd [8]: 580 nM
Kd [9]: 2 nM
Kd [10]: 2 nM
Kd [11]: 50 nM
Kd [12]: 250 nM
Kd [13]: 370 nM
Kd [14]: 440 nM
B1: FITC-labeled H3(1-19) peptide with K4me1 and K9me3 (peptide, UniProt P68431 2-20, looked up)
peptide: ARTK(Me)QTARK(Me3)STGGKAPRKQ
modifications: also: FITC-labeled (position not given here)
notes: histone H3 N-terminal tail, residues 1-19; also called H3K4me1-K9me3; H3 K4me1-K9me3

Kd [13]: 900 nM
Kd [14]: 900 nM
B2: FITC-labeled H3(1-19) peptide with K9me3 (peptide, UniProt P68431 2-20, looked up)
peptide: ARTKQTARKSTGGKAPRKQ
modifications: K9me3 (trimethyl-lysine at 9); FITC-labeled
notes: histone H3 N-terminal tail, residues 1-19; also called H3K9me3; H3 K9me3
